We go through one substance from paper PMC12590944.

The target of the test is Archaeoglobus fulgidus ferritin (AfFt), empty cage (Archaeoglobus fulgidus) (UniProt O29424). The test can be described thus: UV-vis spectra; AfFt@ samples (AfFt mixed with APEX2-GFP+ at 1:3 under 300 mM NaCl); cargo per cage calculated from the spectra.

On to “Engineered Ascorbate Peroxidase 2-GFP+36 fusion protein (APEX2-GFP+) (enzyme)”, for which the stoichiometry N (cargo molecules per cage) was 1.45.
